{"source": "patent US7427595", "about": "(CORNELL RESEARCH FOUNDATION, dated 2008)", "key": {"[1]": {"target": "T1, recombinant human SLPI (Amgen)", "T1 chain": "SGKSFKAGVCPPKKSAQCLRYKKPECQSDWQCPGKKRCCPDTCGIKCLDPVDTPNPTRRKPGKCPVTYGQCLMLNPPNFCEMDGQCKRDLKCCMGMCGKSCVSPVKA"}, "[2]": {"target": "T2, recombinant mouse SLPI (Amgen)", "T2 chain": "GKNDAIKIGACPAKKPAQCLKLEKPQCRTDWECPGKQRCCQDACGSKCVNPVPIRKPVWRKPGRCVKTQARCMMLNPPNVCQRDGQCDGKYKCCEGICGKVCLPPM"}, "[3]": {"target": "T3, PEPI in human bronchoalveolar lavage (BAL) fluid (human, UniProt P28799 18-593)", "T3 construct": "Endogenous protein, immunoprecipitated with antiserum against human PEPI; also called proepithelin", "T3 sequence (looked up)": "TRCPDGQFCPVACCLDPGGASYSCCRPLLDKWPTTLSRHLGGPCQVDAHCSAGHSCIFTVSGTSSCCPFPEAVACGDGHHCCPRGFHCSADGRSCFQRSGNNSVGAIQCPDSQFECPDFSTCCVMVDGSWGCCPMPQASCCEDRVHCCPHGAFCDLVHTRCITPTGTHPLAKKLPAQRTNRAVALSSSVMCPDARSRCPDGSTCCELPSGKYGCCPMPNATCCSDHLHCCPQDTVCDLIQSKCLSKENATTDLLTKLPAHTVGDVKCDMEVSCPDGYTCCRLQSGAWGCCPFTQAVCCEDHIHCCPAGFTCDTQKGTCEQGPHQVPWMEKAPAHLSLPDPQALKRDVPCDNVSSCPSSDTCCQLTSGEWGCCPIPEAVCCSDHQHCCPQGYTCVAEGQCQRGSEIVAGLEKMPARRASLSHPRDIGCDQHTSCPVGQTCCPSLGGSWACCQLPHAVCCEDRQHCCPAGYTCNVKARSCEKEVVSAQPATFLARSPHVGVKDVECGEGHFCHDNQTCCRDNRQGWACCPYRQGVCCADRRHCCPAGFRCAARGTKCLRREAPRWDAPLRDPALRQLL", "test": "immunoprecipitation of PEPI from BAL fluids of two individuals, anti-SLPI blot", "procedure": "BAL fluids were collected from healthy adult subjects according to an institutional review board-approved protocol following informed consent. The fluids (45 ml each) were concentrated to 0.5 ml in a Centriprep (Millipore) with 10 kDa cut-off before immunoprecipitation with antiserum against human PEPI and western blotting with antisera against human SLPI or human PEPI.\nTo test if a SLPI-PEPI complex exists in vivo normal human bronchoalveolar lavage (BAL) fluid samples were examined because both SLPI and PEPI are strongly expressed in airway epithelium (Abe et al., 1991; Daniel et al., 2000). PEPI was immunoprecipitated from the BAL fluids collected from two individuals, and SLPI was detected in the PEPI immunoprecipitates (FIG. 2D). Thus, the SLPI-PEPI complex is physiologic."}, "[4]": {"target": "T4, recombinant human SLPI (Amgen) (human, UniProt P03973 26-132)", "T4 construct": "Obtained from Amgen; also called SLPIwt; wild type human SLPI", "test": "reciprocal co-immunoprecipitation of pure recombinant proteins (anti-FLAG M2 and anti-SLPI), western blot", "text": "PEPI and SLPI were transiently expressed in HEK293 or COS-1 cells. FLAG-tagged PEPI (aa 18-593) was expressed from pCMVI-FLAG and SLPI constructs from pcDNA3.1 (Invitrogen). SLPI constructs included mouse full length (aa 1-131), mouse N-terminal domain (aa 1-80), mouse C-terminal domain (aa 1-25/81-131), and human full-length (aa 1-131). Three days following co-transfection via SuperFect reagent (Qiagen), conditioned media were immunoprecipitated with FLAG M2 antibody (Sigma), separated by reducing SDS-PAGE and western blotted with anti-SLPI antibody (Jin et al., 1997). For in vitro immunoprecipitation assays, recombinant human PEPI or EPI (FLAG-tagged) and SLPI (5 pmol each) were incubated in 10 mM Tris-HCl (pH 7.5), 150 mM NaCl at 37° C. for 30 min before immunoprecipitation with anti-FLAG M2 antibody and western blotting with anti-SLPI antibody or the reverse.\nNext, experiments were performed to ascertain which part of PEPI binds to SLPI (for the order of EPIs in PEPI, see FIG. 1A). EPIs G and F were absent in the partial PEPI sequences isolated as SLPI-binding proteins in yeast (FIG. 1A) and thus were dispensable for the interaction. […] When FLAG-tagged recombinant human EPI A or EPI B was incubated with recombinant human SLPI at an equimolar ratio (FIG. 2E) or at a molar ratio of A (or B):SLPI::1:5 (not shown), SLPI was not detected in EPI immunoprecipitates or vice versa. […]"}, "[5]": {"target": "T5, partial mouse PEPI (1180 bp of the ORF) in fusion with the activation domain of GAL4 (GAL4-AD), 21 two-hybrid … (yeast; mouse, UniProt P28798 197-589, limits assumed)", "T5 construct": "EPIs G and F absent; also called proepithelin", "T5 sequence": "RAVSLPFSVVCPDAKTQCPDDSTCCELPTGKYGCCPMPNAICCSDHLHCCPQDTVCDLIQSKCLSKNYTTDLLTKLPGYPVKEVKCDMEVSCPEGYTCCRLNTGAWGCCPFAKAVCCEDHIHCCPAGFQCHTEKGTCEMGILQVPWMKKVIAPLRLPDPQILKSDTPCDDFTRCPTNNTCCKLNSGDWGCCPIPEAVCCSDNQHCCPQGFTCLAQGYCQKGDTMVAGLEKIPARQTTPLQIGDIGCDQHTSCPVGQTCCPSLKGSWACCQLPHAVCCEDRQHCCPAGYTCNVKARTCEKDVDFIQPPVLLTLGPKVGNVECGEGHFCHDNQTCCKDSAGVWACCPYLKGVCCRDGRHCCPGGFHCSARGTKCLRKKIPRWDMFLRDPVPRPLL", "test": "yeast two-hybrid, growth without histidine and LacZ expression"}}, "data": [{"binder": "human neutrophil elastase (Sigma) (protein) IVGGRRARPHAWPFMVSLQLRGGHFCGATLIAPNFVMSAAHCVANVNVRAVRVVLGAHNLSRREPTRQVFAVQRIFENGYDPVNLLNDIVILQLNGSATINANVQVAQLPAQGRRLGNGVQCLAMGWGLLGRNRGIASVLQELNVTVVTSLCRRSNVCTLVRGRQAGVCFGDSGSPLVCNGLIHGIASFVRGGCASGLYPDAFAPVAQFVNWIDSIIQ", "values": [{"measurement": "cleavage of PEPI by elastase (anti-FLAG western blot)", "setting": "[1]", "value": "human and mouse SLPI did block the cleavage of human PEPI by elastase, human SLPI being the more potent"}, {"measurement": "cleavage of PEPI by elastase (anti-FLAG western blot)", "setting": "[2]", "value": "human and mouse SLPI did block the cleavage of human PEPI by elastase, human SLPI being the more potent"}]}, {"binder": "SLPI in human bronchoalveolar lavage (BAL) fluid (other, UniProt P03973 26-132, looked up, Endogenous protein) SGKSFKAGVCPPKKSAQCLRYKKPECQSDWQCPGKKRCCPDTCGIKCLDPVDTPNPTRRKPGKCPVTYGQCLMLNPPNFCEMDGQCKRDLKCCMGMCGKSCVSPVKA", "values": [{"measurement": "binding result", "setting": "[3]", "value": "binds"}]}, {"binder": "recombinant human EPI A (aa 281-337) with an N-terminal FLAG-6xHis tag, from insect cells (other, the construct is stated as aa 281-337; also called epithelin A; not shown: N-terminal FLAG-6xHis tag) DVKCDMEVSCPDGYTCCRLQSGAWGCCPFTQAVCCEDHIHCCPAGFTCDTQKGTCEQ", "values": [{"measurement": "binding result", "setting": "[4]", "value": "no binding"}]}, {"binder": "recombinant human EPI B (aa 206-261) with an N-terminal FLAG-6xHis tag, from insect cells (other, also called epithelin B; not shown: N-terminal FLAG-6xHis tag) VMCPDARSRCPDGSTCCELPSGKYGCCPMPNATCCSDHLHCCPQDTVCDLIQSKCL", "values": [{"measurement": "binding result", "setting": "[4]", "value": "no binding"}]}, {"binder": "lamin C (other, UniProt P02545-2 67-230, looked up, Non-specific control in the yeast two-hybrid test) EEVVSREVSGIKAAYEAELGDARKTLDSVAKERARLQLELSKVREEFKELKARNTKKEGDLIAAQARLKDLEALLNSKEAALSTALSEKRTLEGELHDLRGQVAKLEAALGEAKKQLQDEMLRRVDAENRLQTMKEELDFQKNIYSEELRETKRRHETRLVEID", "values": [{"measurement": "binding result", "setting": "[5]", "value": "no binding"}]}]}
